Reference: patent US20240383995A1 (SHANGHAI HENLIUS BIOTECH, published 2024)

Target: T1, Human OX40 expressed on transfected Jurkat or CHO cells (human, UniProt P43489 29-277)
T1 construct: also called human OX40/Jurkat; human OX40/CHO
T1 sequence: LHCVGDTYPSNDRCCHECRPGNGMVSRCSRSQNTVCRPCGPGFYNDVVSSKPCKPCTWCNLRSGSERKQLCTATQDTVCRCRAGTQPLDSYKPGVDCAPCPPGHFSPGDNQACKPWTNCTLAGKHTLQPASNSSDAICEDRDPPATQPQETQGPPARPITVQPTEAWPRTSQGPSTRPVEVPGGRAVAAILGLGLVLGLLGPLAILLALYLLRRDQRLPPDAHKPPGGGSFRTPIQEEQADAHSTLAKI
Assay: flow cytometry on human OX40-transfected Jurkat cells, Alexa Fluor488 anti-human IgG Fc, Geo MFI
Experimental: FIGS. 2A-2C depict whole cell binding of humanized anti-OX40 antibodies to human or cynomolgus OX40 assessed by flow cytometry. Human OX40-expressing Jurkat cells (FIG. 2A), human OX40-expressing CHO cells (FIG. 2B) and cynomolgus OX40-expressing CHO cells (FIG. 2C) were incubated with indicated anti-OX40 bivalent antibodies, and then stained with Alexa Fluor488 conjugated anti-human IgG Fc antibody. The fluorescence intensity was measured by flow cytometry.
Bivalent antibodies of these 15 clones were made by fusing VHH to human IgG1 Fc, expressed in ExpiCHO cells, and purified by Protein A affinity column. Binding affinity of the VHH-Fc bivalent antibodies to human or cynomolgus OX40 was evaluated by flow cytometry using Jurkat cells transfected with human OX40 (human OX40/Jurkat) (FIG. 2A), CHO cells transfected with human OX40 (human OX40/CHO) (FIG. 2B), and CHO cells transfected with cynomolgus OX40 (cyno OX40/CHO) (FIG. 2C). These antibodies with indicated concentrations were incubated with the cells in FACS buffer (3% FBS in PBS) on ice for 30 min, and the free antibodies were washed out with FACS buffer. […] Binding affinity was calculated using GraphPad Prism three parameter logistic equation. […]

B1: 1B3 VHH-Fc bivalent antibody (antibody, human IgG1, V domains shown)
VH: EVQLVESGGGLVQPGGSLRLSCAASGPLGMPSIAWFRQAPGKGLEFVSGIAWSTGDTYYADSVKGRFTISRDNSKNTLYLQMNSLRAEDTAVYYCAADTQVHYMGRHDIRDREEYDYWGQGTLVTVSS
notes: no light chain; also called 1B3-bivalent
- EC50 (read off the curve): ~3 nM
